# Experimental data published in patent US8580556B2, “Sulfonylurea-responsive repressor proteins” (E. I. du Pont de Nemours and Company, priority 2008, dated 2013).
# B1: L1-2: library L1 hit, sulfonylurea-responsive TetR(B) variant, SEQ ID NO: 3 (protein)
# chain: MGSRLDKSKVINSALELLNEVGIEGLTTRKLAQKLGVEQPTLYWHVKNKRALLDALAIEMLDRHATHFCPLEGESWQDFLRNNAKSFRCALLSHRDGAKVCLGTAVTEKQYETMENILAFLCQQGFSLENALYARRAVIAFTLGCVLWDQEYQVAKEERETPTTDSMPPLLRQARELIDHQGAEPAFLFGLELIICGLEKQLKCESGS
# modifications: Sulfonylurea responsive repressor L1-02
# B2: L1-9: library L1 hit, sulfonylurea-responsive TetR(B) variant, parent of L2 and L4 (protein)
# chain: MGSRLDKSKVINSALELLNEVGIEGLTTRKLAQKLGVEQPTLYWHVKNKRALLDALAIEMLDRHATHFCPLEGESWQDFLRNNAKSMRCALLSHRDGAKVCLGTGFTEKQYETAENSLAFLCQQGFSLENALYAMQAVCIFTLGCVLLDQELQVAKEERETPTTDSMPPLLRQALELKDHQGAEPAFLFGLELIICGLEKQLKCESGS
# modifications: Sulfonylurea responsive repressor L1-09
# B3: L1-20: library L1 hit, sulfonylurea-responsive TetR(B) variant, SEQ ID NO: 6 (protein)
# chain: MGSRLDKSKVINSALELLNEVGIEGLTTRKLAQKLGVEQPTLYWHVKNKRALLDALAIEMMDRHQTHFCPLEGESWQDFLRNNAKSMRCALLSHRDGAKVFLGTAWTEKQYETVENLLAFLCQQGFSLENALYALNAVATFTLGCVLWDQEKQVAKEERETPTTDSMPPLLRQAHELGDHQGAEPAFLFGLELIICGLEKQLKSESGS
# modifications: Sulfonylurea responsive repressor L1-20
# B4: L1-24: library L1 hit, sulfonylurea-responsive TetR(B) variant (protein)
# chain: MGSRLDKSKVINSALELLNEVGIEGLTTRKLAQKLGVEQPTLYWHVKNKRALLDALAIEMLDRHNTHFCPLEGESWQDFLRNSAKSMRCALLSHRDGAKVLLGTAVTEKQYETTENSLAFLCQQGFSLENALYAIRAVRTFTLGCVLVDQERQVAKEERETPTTDSMPPLLRQAKELLDHQGAEPAFLFGLELIICGLEKQLKCESGS
# modifications: Sulfonylurea responsive repressor L1-24
# B5: L1-28: library L1 hit, sulfonylurea-responsive TetR(B) variant (protein)
# chain: MGSRLDKSKVINSALELLNEVGIEGLTTRKLAQKLGVEQPTLYWHVKNKRALLDALAIEMLDRHATHFCPLEGESWQDFLRNNAKSMRCALLSHRDGAKVWLGTAWTEKQYETPENVLAFLCQQGFSLENALYASRAVVTFTLGCVLTDQEKQVAKEERETPTTDSMPPLLRQAWELLDHQGAEPAFLFGLELIICGLEKQLKCESGS
# modifications: Sulfonylurea responsive repressor L1-28
# B6: L1-29: library L1 hit, sulfonylurea-responsive TetR(B) variant, SEQ ID NO: 10 (protein)
# chain: MGSRLDKSKVINSALELLNEVGIEGLTTRKLAQKLGVEQPTLYWHVKNKRALLDALAIEMMDRHQTHFCPLEGESWQDFLRNTAKSMRCALLSHRDGAKVWLGTRWTEKQYETPENMLAFLCQQGFSLENALYAWSAVCNFTLGCVLSDQERQVAKEERETPTTDSMPPLLRQAWELSDHQGAEPAFLFGLELIICGLEKQLKCESGS
# modifications: Sulfonylurea responsive repressor L1-29
# B7: L1-31: library L1 hit, sulfonylurea-responsive TetR(B) variant (protein)
# chain: MGSRLDKSKVINSALELLNEVGIEGLTTRKLAQKLGVEQPTLYWHVKNKRALLDALAIEMLDRHATHFCPLEGESWQDFLRNNAKSMRCALLSHRDGAKVMLGTRATEKQYETVENRLAFLCQQGFSLENALYAVRAVHWFTLGCVLIDQEMQVAKEERETPTTDSMPPLLRQAYELYDHQGAEPAFLFGLELIICGLEKQLKCESGS
# modifications: Sulfonylurea responsive repressor L1-31
# B8: L1-38: library L1 hit, sulfonylurea-responsive TetR(B) variant (protein)
# chain: MGSRLDKSKVINSALELLNEVGIEGLTTRKLAQKLGVEQPTLYWHVKNKRALLDALAIEMADRHHTHFCPLEGESWQDFLRNNAKSMRCALLSHRDGAKVWLGTAWTEKQYETTENMLAFLCQQGFSLENALYAWRAVTMFTLGCVLRDQEWQVAKEERETPTTDSMPPLLRQALELGDHQGAEPAFLFGLELIICGLEKQLKCESGS
# modifications: Sulfonylurea responsive repressor L1-38
# System: tetA promoter (PtetA)-lacZ reporter in E. coli KM3
# Assay type: cell-based
# Details: 20 μg/ml Ts; 96-well re-test, FIG. 3
row,Molecule,"response to thifensulfuron-methyl (Ts), blue colony color"
1,B1,most intensely responding
2,B2,most intensely responding
3,B3,most intensely responding

# Same assay, conditions: Table 4; anhydrotetracycline 0.4 μM; 48 hrs at 30° C.
row,Molecule,"relative β-galactosidase activity, inducer atc"
1,B1,1.2
2,B2,0.3
3,B3,2.0
4,B4,0.1
5,B5,0.0
6,B6,0.0
7,B7,0.4
8,B8,6.4

# Same assay, conditions: Table 4; chlorimuron 20 μg/ml (20 ppm); 48 hrs at 30° C.
row,Molecule,"relative β-galactosidase activity, inducer Ci"
1,B1,13.6
2,B2,9.8
3,B3,13.5
4,B4,22.1
5,B5,14.6
6,B6,20.9
7,B7,1.1
8,B8,15.3

# Same assay, conditions: Table 4; chlorsulfuron 20 μg/ml (20 ppm); 48 hrs at 30° C.
row,Molecule,"relative β-galactosidase activity, inducer Cs"
1,B1,4.1
2,B3,22.0
3,B4,3.3
4,B5,5.8
5,B6,15.8
6,B7,1.4
7,B8,14.0

# Same assay, conditions: Table 4; ethametsulfuron 20 μg/ml (20 ppm); 48 hrs at 30° C.
row,Molecule,"relative β-galactosidase activity, inducer Es"
1,B1,5.8
2,B3,15.0
3,B4,0.2
4,B5,0.8
5,B6,1.7
6,B7,13.7
7,B8,14.8

# Same assay, conditions: Table 4; metsulfuron 20 μg/ml (20 ppm); 48 hrs at 30° C.
row,Molecule,"relative β-galactosidase activity, inducer Ms"
1,B1,1.9
2,B2,1.2
3,B3,12.4
4,B4,0.4
5,B5,18.8
6,B7,0.5
7,B8,14.7

# Same assay, conditions: Table 4; nicosulfuron 20 μg/ml (20 ppm); 48 hrs at 30° C.
row,Molecule,"relative β-galactosidase activity, inducer Ns"
1,B1,1.3
2,B2,0.3
3,B3,1.6
4,B4,0.3
5,B5,0.1
6,B6,0.1
7,B7,0.5
8,B8,8.7

# Same assay, conditions: Table 4; no inducer; 48 hrs at 30° C.
row,Molecule,"relative β-galactosidase activity, inducer None"
1,B1,1.0
2,B2,0.3
3,B3,1.4
4,B4,0.1
5,B5,0.0
6,B6,0.0
7,B7,0.3
8,B8,9.5

# Same assay, conditions: Table 4; rimsulfuron 20 μg/ml (20 ppm); 48 hrs at 30° C.
row,Molecule,"relative β-galactosidase activity, inducer Rs"
1,B1,1.3
2,B2,0.4
3,B3,2.0
4,B4,0.3
5,B5,0.2
6,B6,0.1
7,B7,0.4
8,B8,9.5

# Same assay, conditions: Table 4; sulfometuron 20 μg/ml (20 ppm); 48 hrs at 30° C.
row,Molecule,"relative β-galactosidase activity, inducer Sm"
1,B1,4.7
2,B2,0.6
3,B3,6.0
4,B4,3.1
5,B5,1.1
6,B6,2.7
7,B7,0.9
8,B8,18.3

# Same assay, conditions: Table 4; thifensulfuron 20 μg/ml (20 ppm); 48 hrs at 30° C.
row,Molecule,"relative β-galactosidase activity, inducer Ts"
1,B1,1.6
2,B2,1.1
3,B3,2.6
4,B4,0.3
5,B5,0.1
6,B6,0.0
7,B7,0.9
8,B8,16.7

# Same assay, conditions: Table 4; tribenuron 20 μg/ml (20 ppm); 48 hrs at 30° C.
row,Molecule,"relative β-galactosidase activity, inducer Tb"
1,B1,1.7
2,B2,0.4
3,B3,2.6
4,B4,1.6
5,B5,0.3
6,B6,0.3
7,B7,0.1
8,B8,15.8

# Same assay, conditions: Table 8; inducers given as numbers without key
row,Molecule,Inducer preference
1,B6,9 (weak)

# Same assay, conditions: Table 10; chlorsulfuron 2 ppm; 48 hours at 30° C.
row,Molecule,"relative β-galactosidase activity, inducer Cs"
1,B2,2.2
2,B6,0.2

# Same assay, conditions: Table 10; ethametsulfuron 2 ppm; 48 hours at 30° C.
row,Molecule,"relative β-galactosidase activity, inducer Es"
1,B6,0.3

# Same assay, conditions: Table 10; metsulfuron 2 ppm; 48 hours at 30° C.
row,Molecule,"relative β-galactosidase activity, inducer Ms"
1,B2,0.9
2,B6,0.3

# Same assay, conditions: Table 10; no inducer; 48 hours at 30° C.
row,Molecule,"relative β-galactosidase activity, No inducer"
1,B2,0.9
2,B6,0.1

# Same assay, conditions: Table 10; sulfometuron 2 ppm; 48 hours at 30° C.
row,Molecule,"relative β-galactosidase activity, inducer Sm"
1,B2,0.9
2,B6,0.2
